Experimental data reported in publication PMC2726291, “Sus1, Cdc31, and the Sac3 CID Region Form a Conserved Interaction Platform that Promotes Nuclear Pore Association and mRNA Export” (Molecular Cell, 2009).

B3: Sus1 (recombinant, untagged, full length) (natural protein, yeast, UniProt Q6WNK7 1-96, looked up)
chain: MTMDTAQLKSQIQQYLVESGNYELISNELKARLLQEGWVDKVKDLTKSEMNINESTNFTQILSTVEPKALEMVSDSTRETVLKQIREFLEEIVDTQ
notes: Sus1, yeast, full length; the model holds residues 6–95; also called Sus1A; Sus1B; source: E. coli BL21(DE3) CodonPlus RIL, untagged vector pOPT, purified as a complex with Sac3 fragment and Cdc31
B6: Cdc31 (recombinant, untagged, full length) (natural protein, yeast, UniProt P06704 1-161, looked up)
chain: MSKNRSSLQSGPLNSELLEEQKQEIYEAFSLFDMNNDGFLDYHELKVAMKALGFELPKREILDLIDEYDSEGRHLMKYDDFYIVMGEKILKRDPLDEIKRAFQLFDDDHTGKISIKNLRRVAKELGETLTDEELRAMIEEFDLDGDGEINENEFIAICTDS
notes: Cdc31, yeast, full length, cloned into pET30a and called untagged; the model holds residues 9–161; source: E. coli BL21(DE3) CodonPlus RIL, coexpressed with GST-Sac3 fragments, purified as a complex

Experiments:
[1] = target: T1, Sus1 (of the in vitro binding studies of Figure S6) (yeast, UniProt Q6WNK7 1-96); assay: not stated; in vitro binding studies (Figure S6)
T1 construct: Sus1, yeast
T1 sequence (looked up): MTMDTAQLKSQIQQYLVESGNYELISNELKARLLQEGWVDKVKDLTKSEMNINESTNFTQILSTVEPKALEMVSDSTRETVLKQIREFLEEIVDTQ

[2] = target: B3; assay: crystal structure; Sac3 fragment:Cdc31:Sus1 complexes, hanging drop vapor diffusion in PEG solutions at 19°C; 2.5 Å (Sac3 753–805) and 2.7 Å (Sac3 723–805); conditions: both partners purified
[3] = target: B6; assay: as above; conditions: both partners purified
[4] = target: T2, Sac3 residues 723–805 (Sac3^CID) (yeast, UniProt P46674 723-805); assay: as above; conditions: both partners purified
T2 construct: Vector pGEXTEV; also called CID domain; not shown: GST, N-terminal, cleaved
T2 sequence (looked up): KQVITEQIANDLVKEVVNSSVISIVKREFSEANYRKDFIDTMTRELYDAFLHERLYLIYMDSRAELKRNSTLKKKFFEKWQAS

6XHis-ENY2 = target: T3, 6XHis-ENY2 (human, UniProt Q9NPA8 1-101); assay: pull-down; GST or GST fusions immobilised on glutathione Sepharose 4B; purified ENY2 added in 10-fold excess, washed extensively with NB buffer (150 mM NaCl, 50 mM KOAc, 20 mM Tris, 2 mM Mg(OAc)2, 0.1% NP-40); SDS-PAGE (Figure S4); conditions: both partners purified
T3 construct: ENY2, human homolog of Sus1; cDNA cloned into the NdeI and SalI sites of pET28a; also called human Sus1 homolog; DC6/ENY2; source: E. coli BL21, purified (Ni-NTA Agarose)
T3 sequence (looked up): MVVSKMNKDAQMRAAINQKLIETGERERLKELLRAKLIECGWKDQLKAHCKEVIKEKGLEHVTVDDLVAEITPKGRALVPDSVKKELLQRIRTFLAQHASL

B1: Sac3 (construct of the in vitro binding studies of Figure S6) (domain or fragment)
chain: KQVITEQIANDLVKEVVNSSVISIVKREFSEANYRKDFIDTMTRELYDAFLHERLYLIYMDSRAELKRNSTLKKKFFEKWQAS
modifications: Supplement text on Sus1 affinity (Figure S6): plates coated with GST-Sac3(723-805) co-complexed with full-length Cdc31; GST and the Cdc31 partner chain (P06704) omitted here
B1 showed a Kd [1] of roughly 10 nM.

B2: Sac3 residues 753–805 (domain or fragment, yeast, UniProt P46674 753-805, looked up)
chain: EANYRKDFIDTMTRELYDAFLHERLYLIYMDSRAELKRNSTLKKKFFEKWQAS
notes: Vector pGEXTEV; not shown: GST, N-terminal, cleaved
B2: binds [2]; binds [3].

In the case of B3, the “stoichiometry N” value [4] is reported as 2.

B4: GST-Sac3(758–805) (domain or fragment, yeast, UniProt P46674 758-805, looked up)
chain: KDFIDTMTRELYDAFLHERLYLIYMDSRAELKRNSTLKKKFFEKWQAS
notes: Vector pGEXTEV; The methods say that GST-Sac3 fragments were coexpressed with Cdc31; source: E. coli, immobilised on glutathione Sepharose 4B resin from clarified lysate; not shown: GST, N-terminal, kept
B4: binds (6XHis-ENY2).

B5: GST-GANP(1162–1240) (domain or fragment, human, UniProt O60318 1162-1240, looked up)
chain: ELVLSELSQGLAVELMERVMMEFVRETCSQELKNAVETDQRVRVARCCEDVCAHLVDLFLVEEIFQTAKETLQELQCFC
notes: Vector pGEXTEV; not shown: GST, N-terminal, kept
B5: binds (6XHis-ENY2).

In the case of B6, the “stoichiometry N” value [4] is reported as 1.

B7: GST-Sac3(723–752) (domain or fragment, yeast, UniProt P46674 723-752, looked up)
chain: KQVITEQIANDLVKEVVNSSVISIVKREFS
notes: Vector pGEXTEV; source: E. coli, immobilised on glutathione Sepharose 4B resin from clarified lysate; not shown: GST, N-terminal, kept
B7: binds (6XHis-ENY2).

B8: GST-GANP(1162–1204) (domain or fragment, human, UniProt O60318 1162-1204, looked up)
chain: ELVLSELSQGLAVELMERVMMEFVRETCSQELKNAVETDQRVR
notes: as for B5
B8: binds (6XHis-ENY2).
